Changes are numbered by the printed parent chain.
Columns and labels:
Assay in all cases: co-IP
[1] = biological target: T1, C-terminally truncated mouse CD4 T1 (mouse, UniProt P06332-1 27-422)
T1 sequence (looked up): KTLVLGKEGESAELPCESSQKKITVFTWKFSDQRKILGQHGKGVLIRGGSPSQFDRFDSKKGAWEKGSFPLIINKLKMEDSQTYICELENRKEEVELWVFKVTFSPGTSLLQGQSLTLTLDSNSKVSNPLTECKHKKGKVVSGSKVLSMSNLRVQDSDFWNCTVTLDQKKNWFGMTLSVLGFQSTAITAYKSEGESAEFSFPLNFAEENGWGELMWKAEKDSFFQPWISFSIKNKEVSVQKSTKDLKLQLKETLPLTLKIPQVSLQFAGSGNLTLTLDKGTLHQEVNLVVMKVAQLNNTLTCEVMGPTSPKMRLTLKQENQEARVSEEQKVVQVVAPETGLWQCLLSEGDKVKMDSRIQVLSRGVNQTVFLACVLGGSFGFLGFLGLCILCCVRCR

[2] = biological target: T2, T1-TMD (CD4 T1 with GGXXG to GVXXL) (mouse, UniProt P06332-1 27-422, G403V | G406L)
T2 sequence (looked up): T1 sequence (looked up) with G377V, G380L

[3] = biological target: T3, T1-Palm (2C) (mouse, UniProt P06332-1 27-422, C418S | C421S)
T3 sequence (looked up): T1 sequence (looked up) with C392S, C395S

[4] = biological target: T4, T1-TP (2C) (mouse, UniProt P06332-1 27-422, G403V | G406L | C418S | C421S)
T4 sequence (looked up): T1 sequence (looked up) with G377V, G380L, C392S, C395S

[5] = biological target: T5, T1-TP (3C) (mouse, UniProt P06332-1 27-422, G403V | G406L | C417S | C418S | C421S)
T5 sequence (looked up): T1 sequence (looked up) with G377V, G380L, C391S, C392S, C395S

Lck DRM AUC (LCK found with CD4, normalised to CD4), percent of WT [1]: 28.8 % of WT control | Lck DSM AUC (LCK found with CD4, normalised to CD4), percent of WT [1]: 16.1 % of WT control | Lck Total AUC (LCK found with CD4, normalised to CD4), percent of WT [1]: 19.2 % of WT control | Lck DRM AUC (LCK found with CD4, normalised to CD4), percent of T1 [2]: 62.4 % of T1 control | Lck DSM AUC (LCK found with CD4, normalised to CD4), percent of T1 [2]: 111 % of T1 control | Lck Total AUC (LCK found with CD4, normalised to CD4), percent of T1 [2]: 93 % of T1 control | Lck DRM AUC (LCK found with CD4, normalised to CD4), percent of T1 [3]: 274 % of T1 control | Lck DSM AUC (LCK found with CD4, normalised to CD4), percent of T1 [3]: 131 % of T1 control | Lck Total AUC (LCK found with CD4, normalised to CD4), percent of T1 [3]: 139 % of T1 control | Lck DRM AUC (LCK found with CD4, normalised to CD4), percent of T1 [4]: 121 % of T1 control | Lck DSM AUC (LCK found with CD4, normalised to CD4), percent of T1 [4]: 115 % of T1 control | Lck Total AUC (LCK found with CD4, normalised to CD4), percent of T1 [4]: 113 % of T1 control | Lck DRM AUC (LCK found with CD4, normalised to CD4), percent of T1 [5]: 86.8 % of T1 control | Lck DSM AUC (LCK found with CD4, normalised to CD4), percent of T1 [5]: 103 % of T1 control | Lck Total AUC (LCK found with CD4, normalised to CD4), percent of T1 [5]: 101 % of T1 control
B1: Src kinase LCK (enzyme, UniProt P06240 1-509, looked up)
chain: MGCVCSSNPEDDWMENIDVCENCHYPIVPLDSKISLPIRNGSEVRDPLVTYEGSLPPASPLQDNLVIALHSYEPSHDGDLGFEKGEQLRILEQSGEWWKAQSLTTGQEGFIPFNFVAKANSLEPEPWFFKNLSRKDAERQLLAPGNTHGSFLIRESESTAGSFSLSVRDFDQNQGEVVKHYKIRNLDNGGFYISPRITFPGLHDLVRHYTNASDGLCTKLSRPCQTQKPQKPWWEDEWEVPRETLKLVERLGAGQFGEVWMGYYNGHTKVAVKSLKQGSMSPDAFLAEANLMKQLQHPRLVRLYAVVTQEPIYIITEYMENGSLVDFLKTPSGIKLNVNKLLDMAAQIAEGMAFIEEQNYIHRDLRAANILVSDTLSCKIADFGLARLIEDNEYTAREGAKFPIKWTAPEAINYGTFTIKSDVWSFGILLTEIVTHGRIPYPGMTNPEVIQNLERGYRMVRPDNCPEELYHLMMLCWKERPEDRPTFDYLRSVLDDFFTATEGQYQPQP
